Legend:
[1] = target: T1, human IGF-1R (native, on cells) (human, UniProt P08069 31-1367); test: FACS titration, MCF-7
T1 construct: also called hIGF-1R; native IGF-1R on MCF-7 cells
Method: The binding properties of a series of anti-IGF-1R antibodies were evaluated by FACS analyses on the human MCF-7 breast adenocarcinoma cell line (ATCC#HTB-22) using increasing antibody concentrations. For that purpose, cells (1×10⁶ cells/ml) were incubated with anti-IGF-1R antibodies for 20 min. at 4° C. in FACS buffer (PBS, 0.1% BSA, 0.01% NaN₃). They were then washed 3 times and incubated with the appropriate secondary antibody coupled with Alexa 488 for 20 additional minutes at 4° C. in the dark before being washed 3 times in FACS buffer. The binding of anti-IGF-1R antibodies was immediately performed on viable cells which were identified using propidium iodide (that stains dead cells). The maximum of signal intensity obtained with each antibody was designed as Bₘₐₓ and expressed in mean of fluorescence intensity (MFI). The EC₅₀ of binding expressed in molarity (M) was calculated using a nonlinear regression analysis (GraphPad Prims 4.0).

[2] = target: T1, human IGF-1R (native, on cells); test: cell-based or functional assay
[3] = target: T2, monkey IGF-1R (on COS-7 cells) (African green monkey); test: cell-based or functional assay
[4] = target: T1, human IGF-1R (native, on cells); test: cell-based or functional assay; remark: listed apart in the source
[5] = target: T1, human IGF-1R (native, on cells); test: FACS titration, hIGF-1R transfected cells
Method: Briefly, increasing concentrations of chimeric mAbs were incubated with cells for 20 min at 4° C. in FACS buffer (PBS, 0.1% BSA, 0.01% NaN₃). Cells were then washed 3 times and incubated with the appropriate secondary antibody coupled with Alexa 488 before being incubated for 20 additional minutes at 4° C. in the dark and then washed 3 times in FACS buffer. The binding of anti-IGF-1R antibodies was immediately performed on viable cells which were identified using propidium iodide (that stains dead cells). The binding EC₅₀ expressed in molarity (M) was calculated using a nonlinear regression analysis (GraphPad Prims 4.0).

[6] = target: T3, rhIR protein (R&D Systems, cat No 1544-IR/CF) (human, UniProt P06213-2 28-944); test: ELISA, coated rhIR 1 ug/ml
T3 construct: extracellular domain; bought; also called rh Insulin R; recombinant human Insulin Receptor
Method: (§1) In addition three ELISA were performed (either before or after cloning) to study the binding of antibodies on the recombinant human (hIGF-1R) and murine (mIGF-1R) proteins, and on the recombinant human Insulin Receptor (hIR) protein. […] The plates were then blocked with PBS containing 0.5% gelatin (#22151, Serva Electrophoresis GmbH, Heidelberg, Germany) for 2 h at 37° C. Once the saturation buffer discarded by flicking plates, 100 μl of each supernatant dilution were added to the wells (either undiluted hybridoma supernatant either supernatant serial dilutions) and incubated for 1 h at 37° C. […] Then, ELISA plates were washed 3-times and the TMB (#UP664782, Uptima, Interchim, France) substrate is added. After a 10 min incubation time at room temperature, the reaction was stopped using 1 M sulfuric acid and the optical density at 450 nm is measured.

[7] = target: T2, monkey IGF-1R (on COS-7 cells); test: FACS, Cos-7 (monkey IGF1R+), Ab 5 ug/ml
[8] = target: T1, human IGF-1R (native, on cells); test: FACS, Tf hIGF1R+ cells, Ab 5 ug/ml
[9] = target: T1, human IGF-1R (native, on cells); test: FACS, MCF7, 4°C, Ab 5 ug/ml
Method: Additionally an internalization assay was performed in order to select only internalizing antibodies. For this assay, the MCF7 tumor cell line was cultured in RMPI 1640 without phenol red with 1% L-glutamine and 10% of […] for 3 days before experiment. Cells were then detached using trypsin and 100 μl of a cell suspension at 4·10⁵ cell/ml are plated in 96-multiwell plates in RPMI1640 without phenol red with 1% L-glutamine and 5% FBS. After a 2 min centrifugation at 2000 rpm, cells were resupended in 50 μl of hybridoma supernatant or control antibody solutions (positive and isotype controls at 1 μg/ml). After a 20 min incubation time at 4° C., cells were centrifuged 2 min at 2000 rpm and resuspended in either cold (4° C.) or warm (37° C.) complete culture medium. Cells were then incubated for 2 hours either at 37° C. or at 4° C. Then cells were washed three times with FACS buffer. An Alexa 488-labeled goat anti-mouse IgG antibody was incubated for 20 minutes and cells were washed three times before FACS analysis on propidium iodide negative cell population.

[10] = target: T4, human insulin receptor (on cells) (human, UniProt P06213 28-1382); test: FACS on hIR+ transfected cells, 4°C
T4 construct: whole, on cells; on stably transfected cells or on IM9 cells; also called hIR; IR
Method: In order to verify the absence of binding of both murine and chimeric antibodies on hIR, a stable cell line expressing the human IR was used. The recognition of human cell surface hIR by both murine and chimeric Ab was performed by FACS analyses. Increasing concentrations of either the murine or the chimeric mAbs were incubated on the hIR′ transfected cell line for 20 minutes at 4° C. in FACS buffer (PBS, 0.1% BSA, 0.01% NaN₃). Cells were then washed 3 times and incubated with the appropriate secondary antibody coupled with Alexa 488 before being incubated for 20 additional minutes at 4° C. in the dark and then washed 3 times in FACS buffer. The binding of anti-IGF-1R antibodies was immediately performed on viable cells which were identified using propidium iodide (that stains dead cells). The binding EC₅₀ expressed in molarity (M) was calculated using a nonlinear regression analysis (GraphPad Prims 4.0). […] The c9G4 was introduced as an irrelevant antibody (isotype control).

[11] = target: T1, human IGF-1R (native, on cells); test: cell-based or functional assay; remark: listed apart in the source
[12] = target: T5, rmIGF-1R protein (R&D Systems, cat No 6630-GR/Fc) (murine, UniProt Q60751 31-936); test: ELISA, coated rm IGF-1R, SNT 5 ug/ml
T5 construct: extracellular domain; bought; also called murine extracellular domain (ECD) of IGF-1R; not shown: Fc only implied by the catalogue number; not described
Method: as §1

[13] = target: T5, rmIGF-1R protein (R&D Systems, cat No …); test: ELISA, coated rmIGF-1R (Table 8)
Method: as §1

T5 sequence (Q60751 31-936): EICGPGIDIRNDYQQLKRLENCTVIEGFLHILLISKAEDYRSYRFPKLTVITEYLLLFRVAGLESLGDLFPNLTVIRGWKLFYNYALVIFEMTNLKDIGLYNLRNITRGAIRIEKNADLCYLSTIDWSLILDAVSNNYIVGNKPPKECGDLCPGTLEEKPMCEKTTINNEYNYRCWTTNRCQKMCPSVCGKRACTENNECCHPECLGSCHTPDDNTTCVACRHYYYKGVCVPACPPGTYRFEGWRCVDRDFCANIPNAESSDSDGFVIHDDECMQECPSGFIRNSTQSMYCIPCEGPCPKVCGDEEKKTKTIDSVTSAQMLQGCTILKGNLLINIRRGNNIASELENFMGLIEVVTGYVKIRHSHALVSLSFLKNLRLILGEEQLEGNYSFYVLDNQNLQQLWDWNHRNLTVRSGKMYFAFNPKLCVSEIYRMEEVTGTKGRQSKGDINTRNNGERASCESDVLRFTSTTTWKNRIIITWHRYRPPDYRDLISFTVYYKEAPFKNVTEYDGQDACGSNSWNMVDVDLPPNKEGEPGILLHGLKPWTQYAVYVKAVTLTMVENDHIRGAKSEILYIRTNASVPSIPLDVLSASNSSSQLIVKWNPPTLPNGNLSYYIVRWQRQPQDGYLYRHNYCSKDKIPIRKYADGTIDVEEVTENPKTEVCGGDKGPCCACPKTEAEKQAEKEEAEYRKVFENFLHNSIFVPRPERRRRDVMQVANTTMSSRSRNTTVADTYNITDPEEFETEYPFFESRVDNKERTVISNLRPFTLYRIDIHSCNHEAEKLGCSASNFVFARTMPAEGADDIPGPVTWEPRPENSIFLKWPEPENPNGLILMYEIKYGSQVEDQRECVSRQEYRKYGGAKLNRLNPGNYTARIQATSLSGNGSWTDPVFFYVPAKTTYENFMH

| Binder | Bmax [1] [MFI] | EC50 [1] [pM] | % Internalization (MCF-7, 10 µg/ml, 4 h) [2] [%] | ΔMFI [2] [MFI] | % internalisation [3] [%] | ΔMFI [3] [MFI] | hIGF-1R phosphorylation, % of that induced by IGF-1 (MCF-7, Ab 10 µg/ml) [4] [%] | Bmax [5] [MFI] | EC50 [5] [pM] | binding result [6] | MFI [7] [MFI] | MFI [8] [MFI] | MFI 4°C [9] [MFI] | binding result [10] | HalfLife (decay of cell-surface bound antibody on MCF-7 at 37°C) [11] | D.O 450 nm [12] [D.O 450 nm] | hIGF-1R phosphorylation in response to IGF-1 (western blot, MCF-7) [4] [%] | binding result [13] |
| --- | --- | --- | --- | --- | --- | --- | --- | --- | --- | --- | --- | --- | --- | --- | --- | --- | --- | --- |
| c213B10 (antibody, human IgG1, kappa, group G2; also called chimeric 213B10) heavy: not shown light: DIQMTQTTSSLSASLGDRVTISCRASQDISKYLNWYQQQPDGTIKLLIYYTSRLHSGVPSRFSGRGSGTDYSLTITNLEQEDIATYFCQQGSALPYTFGGGTKLEIKRTVAAPSVFIFPPSDEQLKSGTASVVCLLNNFYPREAKVQWKVDNALQSGNSQESVTEQDSKDSTYSLSSTLTLSKADYEKHKVYACEVTHQGLSSPVTKSFNRGEC | 1100 | 440 | 85 | 369 | 73 | 101 | < 20 | 2030 | 330 |  |  |  |  |  |  |  |  |  |
| c219D6 (antibody, human IgG1, kappa, V domains shown, group G2; also called chimeric 219D6) VH: QVQLQQSGPELVKPGDSVKMSCKASGYSFTSYFIHWVKQRPGQGLEWIGWIWPGDGSTKYNEKFKGKTTLTTDKSSSTAYMFLNSLTSEDSAVYFCASPMITPNYAMDYWGQGASVTVSS VL: DIQMTQTTSSLSASLGDRVTISCRASQDISKYLNWYQQQPDGTVKLLIYYTSRLHSGVPSRFSGRGSGTDYSLTISNLEQEDIATYFCQQGSTLPYTFGGGTKLEIKR | 993 | 470 | 80 | 353 | 74 | 102 | < 20 | 2520 | 550 |  |  |  |  |  |  |  |  |  |
| c214F8 (antibody, human IgG1, kappa, group G2; also called chimeric 214F8) heavy: not shown light: DIQMTQTTSSLSASLGDRVTFSCRASQDISKYLNWYQQQPDGTIKLLIYYTSRLHSGVPSRFSGRGSGTDYSLTITNLEQEDIATYFCQQGSALPYTFGGGTKLEIKRTVAAPSVFIFPPSDEQLKSGTASVVCLLNNFYPREAKVQWKVDNALQSGNSQESVTEQDSKDSTYSLSSTLTLSKADYEKHKVYACEVTHQGLSSPVTKSFNRGEC | 1070 | 500 | 87 | 403 | 72 | 98 | < 20 | 2090 | 270 |  |  |  |  |  |  |  |  |  |
| m212A11 (antibody, V domains shown, murine mAb, hybridoma CNCM I-4773, group G2) VH: QVQLQQSGPELVKPGASVKMSCKASGYTFTSYYIHWVKQRPGQGLEWIGWIWPGDGSTKYNEKFKGKTTLTADKSSSTAYMFLSSLTSEDSAVYFCASPMITPNYAMDYWGQGASVTVSS VL: DIQMTQTTSSLSASLGDRVTISCRASQDINKYLNWYQQQPDGTVKLLIYYTSRLHSGVPSRFSGRGSGTDYSLTISNLEQEDIATYFCQQGSTLPYTFGGGTKLEIK |  |  |  |  | 73 | 83 |  |  |  | no binding | 125 | 2190 | 390 | no binding (tested: log [M] about -6.5 (about 3e-7 M)) | 14.3 min (unit from p-0380; none on the sheet) | 0.102 | > 80 | no binding |
| m219D6 (antibody, V domains shown, murine mAb, hybridoma CNCM I-4736, group G2) VH: QVQLQQSGPELVKPGDSVKMSCKASGYSFTSYFIHWVKQRPGQGLEWIGWIWPGDGSTKYNEKFKGKTTLTTDKSSSTAYMFLNSLTSEDSAVYFCASPMITPNYAMDYWGQGASVTVSS VL: DIQMTQTTSSLSASLGDRVTISCRASQDISKYLNWYQQQPDGTVKLLIYYTSRLHSGVPSRFSGRGSGTDYSLTISNLEQEDIATYFCQQGSTLPYTFGGGTKLEIK |  |  |  |  | 71 | 80 |  |  |  | no binding | 114 | 2110 | 349 | no binding (tested: log [M] about -6.5 (about 3e-7 M)) | 17.9 min (unit from p-0380; none on the sheet) | 0.112 | > 80 | no binding |

From patent publication US20170267766A1 (PIERRE FABRE MEDICAMENT, published 2017)
